Assay results reported in paper PMC5934667 (Nucleic Acids Research, 2018).

Columns and labels:
[1] = target: T1, RAD51 WT (human, UniProt Q06609 1-339); test: nuclease protection
[2] = target: T2, RAD51 KR (human, UniProt Q06609 1-339, K133R); test: nuclease protection
[3] = target: T3, RAD51 KA (human, UniProt Q06609 1-339, K133A); test: nuclease protection
[4] = target: RecA (bacterial, UniProt P0A7G6 1-353); test: stopped-flow Cy3 fluorescence
[5] = target: T2, RAD51 KR; test: stopped-flow Cy3 fluorescence
[6] = target: T3, RAD51 KA; test: stopped-flow Cy3 fluorescence
[7] = target: the molecule itself; test: negative-stain EM, helical reconstruction
[8] = target: T1, RAD51 WT; test: EMSA
[9] = target: T3, RAD51 KA; test: EMSA
[10] = target: T2, RAD51 KR; test: EMSA

Sequence of RecA (P0A7G6 whole entry): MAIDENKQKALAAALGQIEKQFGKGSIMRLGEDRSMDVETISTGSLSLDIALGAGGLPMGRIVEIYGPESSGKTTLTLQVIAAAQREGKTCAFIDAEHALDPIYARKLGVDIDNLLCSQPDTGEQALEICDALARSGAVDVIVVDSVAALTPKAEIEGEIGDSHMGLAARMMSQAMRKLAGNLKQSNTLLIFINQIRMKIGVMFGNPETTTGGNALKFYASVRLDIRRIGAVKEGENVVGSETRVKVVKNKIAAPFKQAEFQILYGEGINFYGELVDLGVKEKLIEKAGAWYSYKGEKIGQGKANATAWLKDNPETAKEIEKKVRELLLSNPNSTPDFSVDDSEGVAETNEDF

B1: 61-mer (ssDNA)
DNA: GACGCTGCCGAATTCTACCAGTGCCTTGCTAGGACATCTTTGCCCACCTGCAGGTTCACCC
[1]
  binding result: binds
[2]
  binding result: binds
[3]
  binding result: binds

B2: 5'-Cy3-dT79 (ssDNA)
DNA: TTTTTTTTTTTTTTTTTTTTTTTTTTTTTTTTTTTTTTTTTTTTTTTTTTTTTTTTTTTTTTTTTTTTTTTTTTTTTTT
[4]
  Kd: < 1100 nM
[5]
  binding result: binds
[6]
  binding result: binds

B3: Human RAD51 K133R (natural protein)
chain: MAMQMQLEANADTSVEEESFGPQPISRLEQCGINANDVKKLEEAGFHTVEAVAYAPKKELINIKGISEAKADKILAEAAKLVPMGFTTATEFHQRRSEIIQITTGSKELDKLLQGGIETGSITEMFGEFRTGRTQICHTLAVTCQLPIDRGGGEGKAMYIDTEGTFRPERLLAVAERYGLSGSDVLDNVAYARAFNTDHQTQLLYQASAMMVESRYALLIVDSATALYRTDYSGRGELSARQMHLARFLRMLLRLADEFGVAVVITNQVVAQVDGAAMFAADPKKPIGGNIIAHASTTRLYLRKGRGETRICKIYDSPCLPEAEAMFAINADGVGDAKD
[7]
  binding result: binds

B4: Human RAD51 K133A (natural protein)
chain: MAMQMQLEANADTSVEEESFGPQPISRLEQCGINANDVKKLEEAGFHTVEAVAYAPKKELINIKGISEAKADKILAEAAKLVPMGFTTATEFHQRRSEIIQITTGSKELDKLLQGGIETGSITEMFGEFRTGATQICHTLAVTCQLPIDRGGGEGKAMYIDTEGTFRPERLLAVAERYGLSGSDVLDNVAYARAFNTDHQTQLLYQASAMMVESRYALLIVDSATALYRTDYSGRGELSARQMHLARFLRMLLRLADEFGVAVVITNQVVAQVDGAAMFAADPKKPIGGNIIAHASTTRLYLRKGRGETRICKIYDSPCLPEAEAMFAINADGVGDAKD
[7]
  binding result: binds

B5: 83-mer (ssDNA)
DNA: AAATGAACATAAAGTAAATAAGTATAAGGATAATACAAAATAAGTAAATGAATAAACATAGAAAATAAAGTAAAGGATATAAA
[8]
  binding result: binds
[9]
  binding result: binds
[10]
  binding result: binds
